From patent US20220064276A1 (SCHOLAR ROCK, published 2022)
Read-outs that look alike come from different tables or passages of the source.

Tests used:
[1] = target: T1, LTBP-proTGFβ1: transfected human proTGFβ1 presented by endogenous LTBP1/3 of LN229 cells (human); experiment: cell-based or functional assay
[2] = target: T2, mouse LTBP1-proTGFβ1 complex (mouse, UniProt Q8CG19 339-1712; P04202 30-390); experiment: cell-based or functional assay
[3] = target: T3, human LTBP1-proTGFβ1 complex (human, UniProt Q14766 347-1721; P01137 30-390); experiment: Octet binning; competitor (immobilized second antibody) SR-AB2
T3 construct: Large latent complex: one presenting molecule disulfide-linked to a proTGFβ1 dimer; also called Hu LTBP1-proTGFβ1; huLTBP1 proTGFβ1
T3 sequence (Q14766 347-1721 limits assumed, chain 1 of 2): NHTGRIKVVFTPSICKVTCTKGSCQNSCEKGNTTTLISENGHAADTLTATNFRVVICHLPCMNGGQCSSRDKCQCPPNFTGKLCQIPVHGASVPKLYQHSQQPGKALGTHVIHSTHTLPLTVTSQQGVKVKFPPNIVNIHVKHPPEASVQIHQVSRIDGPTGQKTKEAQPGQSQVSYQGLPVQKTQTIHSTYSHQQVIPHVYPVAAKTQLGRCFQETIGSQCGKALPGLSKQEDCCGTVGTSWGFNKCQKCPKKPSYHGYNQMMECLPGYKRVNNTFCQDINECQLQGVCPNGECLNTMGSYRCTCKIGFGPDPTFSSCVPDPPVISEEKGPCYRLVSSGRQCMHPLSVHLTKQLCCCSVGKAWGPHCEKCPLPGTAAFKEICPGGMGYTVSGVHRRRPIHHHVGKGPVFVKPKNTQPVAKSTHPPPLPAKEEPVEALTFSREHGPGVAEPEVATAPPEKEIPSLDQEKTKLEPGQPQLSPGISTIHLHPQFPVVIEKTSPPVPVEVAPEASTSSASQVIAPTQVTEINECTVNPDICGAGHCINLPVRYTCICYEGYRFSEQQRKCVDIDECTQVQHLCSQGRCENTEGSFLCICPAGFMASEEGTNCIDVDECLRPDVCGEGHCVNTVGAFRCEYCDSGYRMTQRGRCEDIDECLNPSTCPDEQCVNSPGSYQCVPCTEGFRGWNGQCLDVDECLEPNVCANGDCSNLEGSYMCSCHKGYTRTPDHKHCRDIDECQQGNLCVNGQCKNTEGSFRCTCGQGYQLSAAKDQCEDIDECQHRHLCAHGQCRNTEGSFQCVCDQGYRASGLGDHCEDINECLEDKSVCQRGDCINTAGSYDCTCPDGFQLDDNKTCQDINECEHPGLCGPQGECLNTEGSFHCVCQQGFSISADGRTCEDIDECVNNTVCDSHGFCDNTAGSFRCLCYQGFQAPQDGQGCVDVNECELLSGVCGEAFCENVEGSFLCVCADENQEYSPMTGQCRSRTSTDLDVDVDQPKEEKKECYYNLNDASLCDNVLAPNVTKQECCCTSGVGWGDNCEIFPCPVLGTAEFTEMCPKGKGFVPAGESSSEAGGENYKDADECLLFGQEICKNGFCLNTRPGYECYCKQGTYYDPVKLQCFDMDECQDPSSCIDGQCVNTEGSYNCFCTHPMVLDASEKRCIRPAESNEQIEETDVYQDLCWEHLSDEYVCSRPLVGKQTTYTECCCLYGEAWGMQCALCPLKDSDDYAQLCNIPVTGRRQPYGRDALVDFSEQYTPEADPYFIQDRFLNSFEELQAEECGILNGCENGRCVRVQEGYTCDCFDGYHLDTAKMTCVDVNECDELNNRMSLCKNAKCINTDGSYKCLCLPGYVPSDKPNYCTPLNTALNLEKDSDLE
T3 sequence (P01137 30-390 limits assumed, chain 2 of 2): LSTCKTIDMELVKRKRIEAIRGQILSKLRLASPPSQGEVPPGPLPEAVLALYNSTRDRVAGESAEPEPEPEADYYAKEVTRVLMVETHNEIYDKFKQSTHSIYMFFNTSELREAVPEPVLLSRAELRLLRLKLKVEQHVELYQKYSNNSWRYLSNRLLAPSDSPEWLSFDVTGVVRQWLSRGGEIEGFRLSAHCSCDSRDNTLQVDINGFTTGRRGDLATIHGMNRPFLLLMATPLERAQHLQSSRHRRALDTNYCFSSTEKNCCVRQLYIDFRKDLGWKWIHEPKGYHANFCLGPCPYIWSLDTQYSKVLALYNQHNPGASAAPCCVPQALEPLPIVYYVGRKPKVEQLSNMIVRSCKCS
Protocol: (§1) 500 nM of human LTBP1-proTGFb1 complex was pre-incubated with 1 μM of each test antibody. After an overnight incubation, the LTBP1-proTGFβ1+first antibody was tested for binding to a second antibody which was immobilized to an Anti-Human IgG Fc Capture (AHC) sensor tip at 67 nM. The sensor tip was blocked with a negative control antibody (HuNeg) before seeing the LTBP1-proTGFβ1+first antibody.
(§2) Normalized responses less than 70% or less than 0.7 of the uninhibited interaction were considered antibodies that cross block.

[4] = target: T3, human LTBP1-proTGFβ1 complex; experiment: Octet binning; competitor (immobilized second antibody) SR-AB10
Protocol: as §1, §2

[5] = target: T3, human LTBP1-proTGFβ1 complex; experiment: Octet binning; competitor (immobilized second antibody) SR-AB13
Protocol: as §1, §2

[6] = target: T3, human LTBP1-proTGFβ1 complex; experiment: Octet binning; competitor (immobilized second antibody) SR-AB1
Protocol: as §1, §2

[7] = target: T2, mouse LTBP1-proTGFβ1 complex; experiment: Octet BLI, IgG captured
Protocol: (§3) LTBP complex-specific antibodies from the first round of affinity maturation/optimization (SR-AB14, SR-AB16, SR-AB17, SR-AB18, SR-AB19) were selected for a second round of affinity maturation/optimization (i.e., CDR-H3 mutagenesis as described herein) and particular progeny antibodies (SR-AB20, SR-AB21, SR-AB22, SR-AB23, SR-AB24, SR-AB25, SR-AB26, SR-AB27, SR-AB28, and SR-AB29) were assessed for their ability to bind various proTGFβ1 constructs. Binding affinities of the optimized antibodies were measured by Octet against human LTBP1-proTGFβ1, human LTBP3-proTGFbl, mouse LTBP1-proTGFβ1, mouse LTBP3-proTGFbl, and GARP-proTGFβ1 complexes, essentially as described in Example 6. […] The antigens were allowed to associate for 3 minutes followed by a 5-minute dissociation. Kinetics buffer (ForteBio®) was used throughout the experiment, and KD was determined using a 1:1 fitting model for each antibody antigen pair.

[8] = target: T3, human LTBP1-proTGFβ1 complex; experiment: Octet BLI, IgG captured
Protocol: as §3

[9] = target: T4, human LTBP3-proTGFβ1 complex (human, UniProt Q9NS15 44-1303; P01137 30-390, limits assumed); experiment: Octet BLI, IgG captured
T4 construct: Exemplary entries; also called Hu LTBP3-proTGFβ1; huLTBP3 proTGFb1
Protocol: as §3

[10] = target: T2, mouse LTBP1-proTGFβ1 complex; experiment: Octet (bio-layer interferometry), yeast expressed IgG1Agly antibody, antigen at a single 100 nM per Example 6, 1:1 fit; value printed under the panel
[11] = target: T3, human LTBP1-proTGFβ1 complex; experiment: as above
[12] = target: T4, human LTBP3-proTGFβ1 complex; experiment: as above
[13] = target: T1, LTBP-proTGFβ1: transfected human …; experiment: cell-based or functional assay; remark: listed apart in the source
[14] = target: T2, mouse LTBP1-proTGFβ1 complex; experiment: cell-based or functional assay; remark: listed apart in the source
[15] = target: T5, mouse LTBP3-proTGFβ1 complex (mouse, UniProt Q61810 41-1245; P04202 30-390, limits assumed); experiment: Octet (bio-layer interferometry), yeast expressed IgG1Agly antibody, antigen at a single 100 nM per Example 6
T5 construct: Exemplary entries; also called Mo LTBP3-proTGFβ1; Murine LTBP3 proTGFb1
T5 sequence (Q61810 other isoform, or with tags, fused parts or gaps limits assumed, chain 1 of 2): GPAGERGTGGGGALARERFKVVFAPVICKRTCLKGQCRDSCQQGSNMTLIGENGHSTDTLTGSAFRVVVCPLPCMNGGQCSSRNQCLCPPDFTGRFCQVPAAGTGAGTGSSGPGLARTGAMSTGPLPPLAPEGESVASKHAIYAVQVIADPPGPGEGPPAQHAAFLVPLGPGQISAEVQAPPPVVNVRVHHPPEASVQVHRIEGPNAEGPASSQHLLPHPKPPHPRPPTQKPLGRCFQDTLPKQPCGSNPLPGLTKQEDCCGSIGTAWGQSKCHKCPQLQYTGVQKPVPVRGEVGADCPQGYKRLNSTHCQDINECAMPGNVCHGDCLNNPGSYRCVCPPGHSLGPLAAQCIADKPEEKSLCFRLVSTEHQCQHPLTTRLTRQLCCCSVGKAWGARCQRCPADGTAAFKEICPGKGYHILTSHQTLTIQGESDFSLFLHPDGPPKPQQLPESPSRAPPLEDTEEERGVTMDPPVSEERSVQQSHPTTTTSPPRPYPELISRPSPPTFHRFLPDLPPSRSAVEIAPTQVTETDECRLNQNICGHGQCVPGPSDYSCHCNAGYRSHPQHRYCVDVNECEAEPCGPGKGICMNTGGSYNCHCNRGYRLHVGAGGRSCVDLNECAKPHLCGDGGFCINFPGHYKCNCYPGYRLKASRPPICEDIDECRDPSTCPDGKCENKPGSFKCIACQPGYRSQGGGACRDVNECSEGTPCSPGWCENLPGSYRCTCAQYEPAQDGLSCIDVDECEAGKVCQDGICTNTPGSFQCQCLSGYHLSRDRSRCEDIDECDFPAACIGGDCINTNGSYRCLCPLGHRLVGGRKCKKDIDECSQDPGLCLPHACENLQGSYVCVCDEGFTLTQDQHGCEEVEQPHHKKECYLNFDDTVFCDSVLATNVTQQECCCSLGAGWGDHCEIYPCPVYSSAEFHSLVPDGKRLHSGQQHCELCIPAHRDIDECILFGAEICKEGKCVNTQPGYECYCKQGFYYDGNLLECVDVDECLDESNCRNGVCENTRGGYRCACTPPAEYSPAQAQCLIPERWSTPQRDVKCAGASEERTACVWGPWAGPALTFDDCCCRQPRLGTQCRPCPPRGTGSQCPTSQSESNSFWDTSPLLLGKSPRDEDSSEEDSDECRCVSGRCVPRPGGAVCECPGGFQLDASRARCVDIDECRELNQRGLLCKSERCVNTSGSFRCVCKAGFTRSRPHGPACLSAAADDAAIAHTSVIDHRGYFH
T5 sequence (P04202 30-390 limits assumed, chain 2 of 2): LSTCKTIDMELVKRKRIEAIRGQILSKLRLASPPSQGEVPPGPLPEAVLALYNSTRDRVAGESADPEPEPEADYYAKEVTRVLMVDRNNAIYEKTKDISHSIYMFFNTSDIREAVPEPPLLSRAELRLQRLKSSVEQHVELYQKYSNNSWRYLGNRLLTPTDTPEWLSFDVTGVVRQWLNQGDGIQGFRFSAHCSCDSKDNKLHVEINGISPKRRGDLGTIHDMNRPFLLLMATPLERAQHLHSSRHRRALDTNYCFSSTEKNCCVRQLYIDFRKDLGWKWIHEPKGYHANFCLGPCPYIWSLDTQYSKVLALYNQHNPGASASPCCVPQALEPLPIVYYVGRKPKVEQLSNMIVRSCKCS

[16] = target: T6, human GARP-proTGFβ1 complex (human, UniProt Q14392 18-627; P01137 30-390, limits assumed); experiment: as above
T6 construct: Exemplary entries; also called Hu GARP-proTGFβ1; huGARP proTGFb1
T6 sequence (Q14392 18-627 limits assumed, chain 1 of 2): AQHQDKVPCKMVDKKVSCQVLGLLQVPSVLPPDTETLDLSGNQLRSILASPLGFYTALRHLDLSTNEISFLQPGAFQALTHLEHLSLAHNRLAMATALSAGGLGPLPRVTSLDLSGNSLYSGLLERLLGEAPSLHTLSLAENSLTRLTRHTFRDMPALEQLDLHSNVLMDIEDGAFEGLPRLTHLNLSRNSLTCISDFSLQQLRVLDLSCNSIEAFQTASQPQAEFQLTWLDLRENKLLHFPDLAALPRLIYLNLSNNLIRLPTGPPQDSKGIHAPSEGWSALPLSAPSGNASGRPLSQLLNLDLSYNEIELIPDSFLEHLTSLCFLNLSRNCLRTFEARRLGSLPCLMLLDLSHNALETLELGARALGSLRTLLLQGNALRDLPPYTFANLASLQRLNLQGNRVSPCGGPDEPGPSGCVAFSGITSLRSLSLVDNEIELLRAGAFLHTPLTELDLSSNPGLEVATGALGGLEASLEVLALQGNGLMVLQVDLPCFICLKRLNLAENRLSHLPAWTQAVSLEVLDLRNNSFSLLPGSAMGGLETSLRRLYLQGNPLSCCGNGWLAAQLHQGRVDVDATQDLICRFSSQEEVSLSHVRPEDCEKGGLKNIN
T6 sequence (P01137 30-390 limits assumed, chain 2 of 2): as the sequence (P01137 30-390 limits assumed, chain 2 of 2) above

[17] = target: T1, LTBP-proTGFβ1: transfected human …; experiment: cell-based or functional assay; remark: listed apart in the source
[18] = target: T2, mouse LTBP1-proTGFβ1 complex; experiment: cell-based or functional assay; remark: listed apart in the source
[19] = target: T5, mouse LTBP3-proTGFβ1 complex; experiment: Octet BLI, IgG captured
Protocol: as §3

[20] = target: T1, LTBP-proTGFβ1: transfected human …; experiment: cell-based or functional assay; remark: listed apart in the source
[21] = target: T2, mouse LTBP1-proTGFβ1 complex; experiment: cell-based or functional assay; remark: listed apart in the source
[22] = target: T5, mouse LTBP3-proTGFβ1 complex; experiment: Octet (bio-layer interferometry), yeast expressed IgG1Agly antibody, antigen at a single 100 nM per Example 6, 1:1 fit; value printed under the panel
[23] = target: T7, human LRRC33-proTGFβ1 complex (human, UniProt Q86YC3 19-650; P01137 30-390, limits assumed); experiment: SPR Biacore 8K, Fab up to 100 nM over captured antigen
T7 construct: Exemplary entries; also called huLRRC33 proTGFb1; HuLRRC33-ProTGFb1
T7 sequence (Q86YC3 19-650 limits assumed, chain 1 of 2): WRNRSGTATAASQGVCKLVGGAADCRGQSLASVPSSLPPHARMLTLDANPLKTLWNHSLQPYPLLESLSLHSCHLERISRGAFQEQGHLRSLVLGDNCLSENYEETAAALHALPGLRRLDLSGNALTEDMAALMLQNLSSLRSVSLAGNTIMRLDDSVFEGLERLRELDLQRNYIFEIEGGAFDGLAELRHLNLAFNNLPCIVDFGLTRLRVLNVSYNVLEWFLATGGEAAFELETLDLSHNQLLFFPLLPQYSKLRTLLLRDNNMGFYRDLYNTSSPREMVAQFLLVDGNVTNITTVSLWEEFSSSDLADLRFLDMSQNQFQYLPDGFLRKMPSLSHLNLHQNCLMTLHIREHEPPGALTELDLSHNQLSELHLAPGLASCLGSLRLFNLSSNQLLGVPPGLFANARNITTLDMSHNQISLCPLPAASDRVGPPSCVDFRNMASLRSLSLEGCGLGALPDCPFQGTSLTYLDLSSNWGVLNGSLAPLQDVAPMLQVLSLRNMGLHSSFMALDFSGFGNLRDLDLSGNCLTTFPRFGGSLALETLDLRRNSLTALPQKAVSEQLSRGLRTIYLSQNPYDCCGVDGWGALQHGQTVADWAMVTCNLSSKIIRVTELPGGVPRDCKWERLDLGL
T7 sequence (P01137 30-390 limits assumed, chain 2 of 2): as the sequence (P01137 30-390 limits assumed, chain 2 of 2) above
Protocol: (§4) A Biacore 8K system was employed to determine the monovalent binding affinity and the kinetic parameters for antigen binding of test antibodies. Association and dissociation kinetics of Fab fragments SR-AB42-HuFab, SR-AB63-HuFab and SR-AB43-HuFab to antigen complexes were measured, and resulting ka, kd and KD are provided below. Briefly, the binding kinetics were evaluated by surface plasmon resonance using Biacore 8K (GE Healthcare). Biotinylated capture antigens were immobilized to the chip (10 nM, ˜200 RU loading). A Biotin CAPture sensor chip was used to capture the biotinylated antigens. […] 0 nM was used as a reference. […] 0 nM was used as a reference. Multi-cycle kinetics was employed where each analyte concentration was injected in a separate cycle and the sensor chip surface was regenerated after each cycle. A11 the assays were carried out in freshly prepared 1× HBS-EP+ buffer (10 mM HEPES, 150 mM NaCl, 3 mM EDTA, 0.05% Tween20, pH 7.4). Data were fit globally to a 1:1 binding model to obtain the kinetic parameters. The sensorgram for 0 nM analyte concentration was used as reference.

[24] = target: T6, human GARP-proTGFβ1 complex; experiment: as above
Protocol: as §4

[25] = target: T3, human LTBP1-proTGFβ1 complex; experiment: SPR (Biacore 8K), biotinylated antigen captured, Fab as analyte, 1:1 fit (Example 9); table beside the sensorgrams
Protocol: as §4

[26] = target: T4, human LTBP3-proTGFβ1 complex; experiment: as above
Protocol: as §4

[27] = target: T4, human LTBP3-proTGFβ1 complex; experiment: SPR Biacore 8K, Fab over captured antigen
Outline: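 Biotinylated antigen complexes captured on a Biotin CAPture chip (10 nM, ~200 RU), with Fab fragments injected as analyte by multi-cycle kinetics and regeneration between cycles. Runs in HBS-EP+ pH 7.4, 0 nM analyte as reference; ka, kd and KD from a global 1:1 binding fit.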

[28] = target: T3, human LTBP1-proTGFβ1 complex; experiment: SPR Biacore 8K, Fab over captured antigen; mean of 4
Protocol: as §4

T1 sequence (P01137 30-390): as the sequence (P01137 30-390 limits assumed, chain 2 of 2) above

B1: SR-AB13 (antibody, IgG1, V domains shown)
VH: QLQLQESGPGLVKPSETLSLTCTVSGGSISSSSYYWGWIRQPPGKGLEWIGSISYSGSTYYNPSLKSRVTISVDTSKNQFSLKLSSVTAADTAVYYCARDPSYDSIAGMDVWGQGTTVTVSS
VL: DIQLTQSPSSLSASVGDRVTITCRASQSISSYLNWYQQKPGKAPKLLIYAASNLQSGVPSRFSGSGSGTDFTLTISSLQPEDFATYYCQQSFDFPFTFGGGTKVEIK
notes: Parent antibody; also called SR-13
In the case of B1, the “IC50, endogenous hLTBP assay (CAGA12 luciferase)” value (“IC50, endogenous hLTBP assay” below) [1] is reported as 4.83 nM, the “IC50, mLTBP1 assay (CAGA12 luciferase)” value [2] is reported as 25.4 nM and the normalized response [3] is reported as 1.29 fraction of uninhibited binding. For the same binder, the normalized response [4] was 1.38 fraction of uninhibited binding, the normalized response [5] was 0.47 fraction of uninhibited binding and the normalized response [6] was 1.08 fraction of uninhibited binding. It also gave a Kd [7] of 59.5 nM, a Kd [8] of 39.2 nM and a Kd [9] of 35.9 nM. It also gave a Kd [10] of 102 nM, a Kd [11] of 148 nM and a Kd [12] of 71 nM. The “IC50, endogenous hLTBP assay” value [13] was 4.83 nM, the “IC50, mLTBP1 assay (CAGA12 luciferase)” value [14] was 25.4 nM and the binding result [15] was “no binding (tested: 100 nM)”. B1: no binding (tested: 100 nM) [16].

B2: SR-AB10 (antibody, IgG1, V domains shown)
VH: QLQLQESGGGVVQPGRSLRLSCAASGFTFNNYPIHWVRQAPGKGLEWVAVMSYDGINKYYADSVKGRFTISRDNSKNTLYLQMNSLRAEDTAVYYCARPRIAARRGGFDYWGQGTLVTVSS
VL: NFMLTQPHSVSESPGKTVTISCTRSSGNIDNNYVQWYQQRPGSSPTTVIYEDNQRPSGVPDRFSGSIDSSSNSASLTISGLKTEDEADYYCQSYDSDNQGVVFGGGTKLTVL
notes: Parent antibody
With B2 the “IC50, endogenous hLTBP assay” value [17] was 3.64 nM, the “IC50, mLTBP1 assay (CAGA12 luciferase)” value [18] was 119 nM and the normalized response [3] was 1.53 fraction of uninhibited binding. For the same binder, the normalized response [4] was 0.51 fraction of uninhibited binding, the normalized response [5] was 1.27 fraction of uninhibited binding and the normalized response [6] was 0.82 fraction of uninhibited binding. The Kd [19] was 23 nM, the Kd [7] was 14.2 nM and the “IC50, endogenous hLTBP assay” value [20] was 3.64 nM. The “IC50, mLTBP1 assay (CAGA12 luciferase)” value [21] was 119 nM, the Kd [22] was 86 nM and the Kd [10] was 79 nM. The Kd [11] was 308 nM and the binding result [16] was “no binding (tested: 100 nM)”.

B3: SR-AB63-HuFab (Fab, V domains shown)
VH: QLQLQESGPGLVKPSETLSLTCTVSGGSIRSSSYYWGWIRQPPGKGLEWIGSISYSATTYYNPSLKSRVTISVDTSKNQFSLKLSSVTAADTAVYYCAGDPSYDSIAGMQVWGQGTTVTVSS
VL: DIQLTQSPSSLSASVGDRVTITCRASQSISSYLNWYQQKPGKAPKLLIYAASNLQSGVPSRFSGSGSGTDFTLTISSLQPEDFATYYCQQSFDWPLTFGGGTKVEIK
notes: Human Fab
B3 was tested, and the Kd [23] was 216 nM, the koff [23] was 0.00108 s⁻¹ and the kon [23] was 5000 M⁻¹ s⁻¹. It also gave a Kd [24] of 349 nM, a koff [24] of 0.00093 s⁻¹ and a kon [24] of 2660 M⁻¹ s⁻¹. It also gave a Kd [25] of 0.03 nM, a Kd [26] of 0.1 nM and a Kd [27] of 0.127 nM. For the same binder, the koff [27] was 4.99e-05 s⁻¹, the kon [27] was 394000 M⁻¹ s⁻¹ and the Kd [28] was 0.000103 nM. It also gave a koff [28] of 3.82e-08 s⁻¹ and a kon [28] of 371000 M⁻¹ s⁻¹.
